Substrate: Nc1ncnc2nc[nH]c12
Test: steady-state kinetics of purified enzyme, GDH-coupled ammonia assay
Assay type: biochemical, Agrobacterium fabrum
Settings: binuclear Mn2+ active site at binuclear metal center (adenine pose only modeled)

B1: adenine deaminase Atu4426 (Agrobacterium fabrum str. C58) (protein)
chain: MTAQIRLAEPADLNDDTLRARAVAAARGDQRFDVLITGGTLVDVVTGELRPADIGIVGALIASVHEPASRRDAAQVIDAGGAYVSPGLIDTHMHIESSMITPAAYAAAVVARGVTTIVWDPHEFGNVHGVDGVRWAAKAIENLPLRAILLAPSCVPSAPGLERGGADFDAAILADLLSWPEIGGIAEIMNMRGVIERDPRMSGIVQAGLAAEKLVCGHARGLKNADLNAFMAAGVSSDHELVSGEDLMAKLRAGLTIELRGSHDHLLPEFVAALNTLGHLPQTVTLCTDDVFPDDLLQGGGLDDVVRRLVRYGLKPEWALRAATLNAAQRLGRSDLGLIAAGRRADIVVFEDLNGFSARHVLASGRAVAEGGRMLVDIPTCDTTVLKGSMKLPLRMANDFLVKSQGAKVRLATIDRPRFTQWGETEADVKDGFVVPPEGATMISVTHRHGMAEPTTKTGFLTGWGRWNGAFATTVSHDSHNLTVFGGNAGDMALAANAVIGTGGGMAVASEGKVTAILPLPLSGLVSDAPLEEVARAFEDLREAVGKVVEWQPPYLVFKACFGATLACNIGPHQTDMGIADVLTGKVMESPVIEVLG
Question: With B1 as the protein, how does the Km read?
Answer: 0.32 ± 0.04 mM

From paper PMC3059353
